Source: FireProtDB (doi:10.1021/bi051013y)

Conditions: Pleurotus ostreatus, Thermal, whole UniProt chain shown
[1] = pH 6, 25 °C, Absorbance, Carbonate 10 mM, reversible: yes
[2] = pH 6, Absorbance, Carbonate 10 mM, reversible: yes
[3] = pH 6, absorbance, HEPES, transition: 2, reversible: YES
[4] = pH 8, 25 °C, Absorbance, HEPES 10 mM, reversible: yes
[5] = pH 8, Absorbance, HEPES 10 mM, reversible: yes
[6] = pH 8, absorbance, HEPES, transition: 2, reversible: YES
[7] = pH 9, Absorbance, Borate 10 mM, reversible: yes
[8] = pH 9, absorbance, HEPES, transition: 2, reversible: YES
[9] = pH 10, 25 °C, Absorbance, Carbonate 10 mM, reversible: yes
[10] = pH 10, Absorbance, Carbonate 10 mM, reversible: yes
[11] = pH 10, absorbance, HEPES, transition: 2, reversible: YES
[12] = pH 11, 25 °C, Absorbance, Carbonate 10 mM, reversible: yes
[13] = pH 11, Absorbance, Carbonate 10 mM, reversible: yes

B1: wild type, Q56QW9 (protein)
chain: AYAQWVIILIHNVGQQNVKIKNLNASWGKLYADGDKDTEVPASKYEGMVIAPGDQVQINACGREDAAEGTTGTFDLVDPNDSDKQVRHISWDCPWGTKANSWVVGGSNSKWMIEYTGQNLDSGALGTITVNTLKIGN
[1]
  heat capacity change of unfolding: 2.87 kcal/mol/K
  unfolding enthalpy (van 't Hoff): 62.9 kcal/mol
  unfolding free energy: 7.27 kcal/mol
[2]
  Tm: 48.6 °C
  unfolding enthalpy (van 't Hoff): 130 kcal/mol
[3]
  Tm: 48.6 °C
  unfolding enthalpy (van 't Hoff): 130 kcal/mol
pH 6, absorbance, HEPES
  unfolding enthalpy (calorimetric): 62.9 kcal/mol
  unfolding free energy: 7.27 kcal/mol
pH 7, absorbance, HEPES, transition: 3, reversible: YES
  Tm: 54.6 °C
[4]
  heat capacity change of unfolding: 2.87 kcal/mol/K
  unfolding enthalpy (van 't Hoff): 64.5 kcal/mol
  unfolding free energy: 8.94 kcal/mol
[5]
  Tm: 51.2 °C
  unfolding enthalpy (van 't Hoff): 140 kcal/mol
[6]
  Tm: 51.2 °C
  unfolding enthalpy (van 't Hoff): 140 kcal/mol
pH 8, absorbance, HEPES
  unfolding enthalpy (calorimetric): 64.5 kcal/mol
  unfolding free energy: 8.94 kcal/mol
[7]
  Tm: 47.2 °C
  unfolding enthalpy (van 't Hoff): 130 kcal/mol
[8]
  Tm: 47.2 °C
  unfolding enthalpy (van 't Hoff): 130 kcal/mol
pH 9, absorbance, HEPES
  unfolding enthalpy (calorimetric): 66.2 kcal/mol
  unfolding free energy: 7.05 kcal/mol
[9]
  heat capacity change of unfolding: 2.87 kcal/mol/K
  unfolding enthalpy (van 't Hoff): 60.5 kcal/mol
  unfolding free energy: 3.47 kcal/mol
[10]
  Tm: 39.4 °C
  unfolding enthalpy (van 't Hoff): 102 kcal/mol
[11]
  Tm: 39.4 °C
  unfolding enthalpy (van 't Hoff): 102 kcal/mol
pH 10, absorbance, HEPES
  unfolding enthalpy (calorimetric): 60.5 kcal/mol
  unfolding free energy: 3.47 kcal/mol
[12]
  heat capacity change of unfolding: 2.87 kcal/mol/K
  unfolding enthalpy (van 't Hoff): 66.4 kcal/mol
  unfolding free energy: 2.32 kcal/mol
[13]
  Tm: 34.6 °C
  unfolding enthalpy (van 't Hoff): 93.9 kcal/mol
pH 11, absorbance, HEPES
  unfolding enthalpy (calorimetric): 66.4 kcal/mol
  unfolding free energy: 2.32 kcal/mol
